The results in this text go back to publication PMC6222646, “HIV-1 Integrase-Targeted Short Peptides Derived from a Viral Protein R Sequence”.

The target of one series is HIV-1 integrase (IN) (HIV-1 (strain ), UniProt P12497 1148-1435). In words: fluorescence anisotropy; IN-activity buffer: 50 mM MOPS pH 7.2, 7.5 mM MgCl2, 14 mM 2-mercaptoethanol; 10 nM DNA, +/- 400 nM IN; 5 min room temperature preincubation, anisotropy read every 30 s for 30 min. Particulars: protein: recombinant; tags: His6 or FLAG constructs described; chain copies: 4; label: AlexaFluor 488 at 5' end of 21T; blunt.

Series [1] deals with Vpr-derived peptide 1a, Vpr(69-75) (HIV-1, UniProt Q73369). The series is described as follows: fluorescence anisotropy; 7.5 mM MgCl2; peptide up to 37 µM, no IN; IN-activity buffer: 50 mM MOPS pH 7.2, 7.5 mM MgCl2, 14 mM 2-mercaptoethanol; 10 nM DNA, +/- 400 nM IN; 5 min room temperature preincubation, anisotropy read every 30 s for 30 min. The settings on record: label: AlexaFluor 488 at 5' end of 21T; blunt.
Sequence of Vpr-derived peptide 1a, Vpr(69-75) (Q73369 whole entry, looked up): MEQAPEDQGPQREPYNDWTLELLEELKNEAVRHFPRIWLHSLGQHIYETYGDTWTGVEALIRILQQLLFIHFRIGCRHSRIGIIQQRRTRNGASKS

B1: 21T/21B duplex (HIV-1 viral DNA end substrate) (dsDNA)
DNA 1: GTGTGGAAAATCTCTAGCAGT
DNA 2: ACTGCTAGAGATTTTCCACAC
On to B1, for which the binding result with HIV-1 integrase (IN) was “binds”; in series [1], “no binding”.
